Results reported in patent US20210388107A1 (BYONDIS B V, published 2021).

T1: cynomolgus monkey SIRPα expressed on ExpiCHO-S cells (cynomolgus monkey, UniProt A0A2K5VYQ9 31-507)
T1 construct: whole, on cells; also called cySIRPα; ExpiCHO-S (cySIRPα)
T1 sequence: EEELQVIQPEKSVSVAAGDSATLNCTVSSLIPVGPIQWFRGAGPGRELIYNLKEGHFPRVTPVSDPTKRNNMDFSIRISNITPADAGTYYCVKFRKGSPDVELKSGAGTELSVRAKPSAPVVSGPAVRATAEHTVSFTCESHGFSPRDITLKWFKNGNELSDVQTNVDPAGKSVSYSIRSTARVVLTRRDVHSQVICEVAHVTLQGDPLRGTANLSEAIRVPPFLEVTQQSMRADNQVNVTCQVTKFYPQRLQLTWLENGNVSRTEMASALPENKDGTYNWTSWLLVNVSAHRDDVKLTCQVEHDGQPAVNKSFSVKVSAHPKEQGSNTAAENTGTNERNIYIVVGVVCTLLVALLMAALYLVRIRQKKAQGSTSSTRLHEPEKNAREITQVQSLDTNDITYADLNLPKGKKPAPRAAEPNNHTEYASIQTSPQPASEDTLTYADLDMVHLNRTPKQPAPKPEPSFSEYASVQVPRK

B1: humanized anti-SIRPα antibody 9 (antibody, human IgG1, kappa, L234A L235A, V domains shown)
VH: RQLVESGGGLVQPGGSLRLSCAASGFSLSSHGISWVRQAPGKGLEWVGTIGTGVITYYASWAKGRFTGSKTSSTAYLQMTSLRSEDTAVYYCARGSAWNDPFDYWGQGTLVTVSS
VL: DIVMTQSPSSLSASVGDRVTITCQASQSVYGNNDLAWYQQKPGQAPKLLIYLASTLATGVPSRFSGSGSGTDFTLTISSLQPEDFATYYCLGGGDDEADNTFGQGTKVEIKR
notes: human IgG1 LALA, kappa; also called mAb 9
B2: humanized anti-SIRPα antibody 11 (antibody, human IgG1, kappa, L234A L235A, V domains shown)
VH: RQLVESGGGLVQPGGSLRLSCAASGFSLSSHGISWVRQAPGKGLEWVGTIGTGVITYYASWAKGRFTGSKTSSTAYLQMTSLRAEDTAVYYCARGSAWNDPFDYWGQGTLVTVSS
VL: DIEMTQSPSSVSASVGDRVTLTCQASQSVYGNNDLAWYQQKPGQAPKLLIYLASTLATGVPSRFSGSGSGTDFTLTISSLQPEDFATYYCLGGGDDEADNVFGGGTKVEIKR
notes: human IgG1 LALA, kappa; also called mAb 11
B3: humanized anti-SIRPα antibody 1 (antibody, human IgG1, kappa, L234A L235A)
heavy: not shown
light: DIQMTQSPSSLSASVGDRVTITCRASQSINSYLAWYQQKPGKAPKLLIYSASFLYSGVPSRFSGSGSGTDFTLTISSLQPEDFATYYCQSWHYISRSYTFGQGTKVEIKRTVAAPSVFIFPPSDEQLKSGTASVVCLLNNFYPREAKVQWKVDNALQSGNSQESVTEQDSKDSTYSLSSTLTLSKADYEKHKVYACEVTHQGLSSPVTKSFNRGEC
notes: human IgG1 LALA, kappa; also called mAb 1
B4: humanized anti-SIRPα antibody 2 (antibody, human IgG1, kappa, L234A L235A)
heavy: not shown
light: DIQMTQSPSSLSASVGDRVTITCRASQSINSYLAWYQQKPGKAPKLLIYSASFLYSGVPSRFSGSGSGTDFTLTISSLQPEDFATYYCQSWHYISRSYTFGQGTKVEIKRTVAAPSVFIFPPSDEQLKSGTASVVCLLNNFYPREAKVQWKVDNALQSGNSQESVTEQDSKDSTYSLSSTLTLSKADYEKHKVYACEVTHQGLSSPVTKSFNRGEC
notes: human IgG1 LALA, kappa; also called mAb 2
B5: humanized anti-SIRPα antibody 3 (antibody, human IgG1, kappa, L234A L235A)
heavy: not shown
light: DIQMTQSPSSLSASVGDRVTITCRASQSINSYLAWYQQKPGKAPKLLIYSASFLYSGVPSRFSGSGSGTDFTLTISSLQPEDFATYYCQSWHYISRSYTFGQGTKVEIKRTVAAPSVFIFPPSDEQLKSGTASVVCLLNNFYPREAKVQWKVDNALQSGNSQESVTEQDSKDSTYSLSSTLTLSKADYEKHKVYACEVTHQGLSSPVTKSFNRGEC
notes: human IgG1 LALA, kappa; also called mAb 3
B6: humanized anti-SIRPα antibody 4 (antibody, human IgG1, kappa, L234A L235A)
heavy: not shown
light: DIQMTQSPSSLSASVGDRVTITCRASQSINSYLAWYQQKPGKAPKLLIYSASFLYSGVPSRFSGSGSGTDFTLTISSLQPEDFATYYCQSWHYISRSYTFGQGTKVEIKRTVAAPSVFIFPPSDEQLKSGTASVVCLLNNFYPREAKVQWKVDNALQSGNSQESVTEQDSKDSTYSLSSTLTLSKADYEKHKVYACEVTHQGLSSPVTKSFNRGEC
notes: human IgG1 LALA, kappa; also called mAb 4
B7: humanized anti-SIRPα antibody 12 (antibody, human IgG1, kappa, L234A L235A)
heavy: not shown
light: DIQMTQSPSSLSASVGDRVTITCRASQSINSYLAWYQQKPGKAPKLLIYSASFLYSGVPSRFSGSGSGTDFTLTISSLQPEDFATYYCQSWHYISRSYTFGQGTKVEIKRTVAAPSVFIFPPSDEQLKSGTASVVCLLNNFYPREAKVQWKVDNALQSGNSQESVTEQDSKDSTYSLSSTLTLSKADYEKHKVYACEVTHQGLSSPVTKSFNRGEC
notes: human IgG1 LALA, kappa; also called mAb 12

Legend:
[1] = target: T2, human SIRPβ1v1, extracellular domain, Avi-FXa-Fc tag (human, biotinylated); experiment: SPR, captured biotinylated antigen
T2 construct: also called huSIRPβ1v1
T2 sequence (chain, as listed by the source limits assumed): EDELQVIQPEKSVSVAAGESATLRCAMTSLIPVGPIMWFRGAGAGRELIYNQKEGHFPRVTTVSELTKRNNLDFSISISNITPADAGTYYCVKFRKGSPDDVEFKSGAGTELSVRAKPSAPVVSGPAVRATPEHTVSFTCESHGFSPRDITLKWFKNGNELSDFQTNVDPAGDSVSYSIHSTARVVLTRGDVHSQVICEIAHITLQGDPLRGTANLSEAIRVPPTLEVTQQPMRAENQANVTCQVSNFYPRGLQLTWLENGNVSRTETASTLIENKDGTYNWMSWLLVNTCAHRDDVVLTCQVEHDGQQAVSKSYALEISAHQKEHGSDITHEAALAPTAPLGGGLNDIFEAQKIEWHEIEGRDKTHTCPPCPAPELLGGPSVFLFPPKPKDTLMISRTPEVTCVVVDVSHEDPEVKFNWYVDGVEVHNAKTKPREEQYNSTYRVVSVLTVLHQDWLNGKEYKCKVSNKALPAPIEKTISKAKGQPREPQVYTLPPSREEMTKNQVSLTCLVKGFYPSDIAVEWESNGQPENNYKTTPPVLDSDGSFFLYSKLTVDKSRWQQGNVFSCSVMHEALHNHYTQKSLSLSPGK
Experimental: (§1) Surface Plasmon Resonance (SPR) assay: Affinity analysis was performed by single cycle kinetics analysis on a Surface Plasmon Resonance apparatus (BiaCore™ T200 system, GE Life Sciences) at 25° C. […] For each step an association time of 150 sec was used, followed by a dissociation time of 600 sec after the highest concentration only, all at a flow rate of 30 μl/min. Regeneration was performed with 6 M guanidine-HCl, 0.25 M NaOH solution (120 sec with flow rate of 30 μl/min). […] Sensorgrams were fitted with a 1:1 Langmuir model for all tested anti-SIRP antibodies. The kinetic parameters (association rate [kₐ], dissociation rate [kd] and binding constant, also referred to as equilibrium dissociation constant or binding affinity [KD]) were calculated using BiaCore™ T200 evaluation software (v3.1).

[2] = target: T3, human SIRPγ, extracellular domain, Avi-FXa-Fc tag (human, biotinylated); experiment: SPR, captured biotinylated antigen
T3 construct: also called huSIRPγ
T3 sequence (chain, as listed by the source limits assumed): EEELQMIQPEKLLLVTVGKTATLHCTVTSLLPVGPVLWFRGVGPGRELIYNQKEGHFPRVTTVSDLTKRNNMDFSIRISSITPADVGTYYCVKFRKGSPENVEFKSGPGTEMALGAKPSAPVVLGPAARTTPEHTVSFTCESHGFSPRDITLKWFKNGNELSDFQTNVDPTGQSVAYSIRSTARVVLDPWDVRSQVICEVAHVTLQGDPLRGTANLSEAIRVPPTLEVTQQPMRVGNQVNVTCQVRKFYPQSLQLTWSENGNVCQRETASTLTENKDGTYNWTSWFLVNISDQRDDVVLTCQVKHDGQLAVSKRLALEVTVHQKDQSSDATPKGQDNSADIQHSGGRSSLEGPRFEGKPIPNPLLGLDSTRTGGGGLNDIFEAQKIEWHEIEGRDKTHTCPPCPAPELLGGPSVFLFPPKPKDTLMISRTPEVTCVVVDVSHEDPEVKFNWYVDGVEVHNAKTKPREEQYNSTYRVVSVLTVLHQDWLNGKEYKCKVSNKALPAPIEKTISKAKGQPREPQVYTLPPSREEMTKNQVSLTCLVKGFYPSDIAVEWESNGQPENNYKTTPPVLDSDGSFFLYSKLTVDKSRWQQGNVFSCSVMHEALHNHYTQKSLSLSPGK
Experimental: as §1

[3] = target: T4, human SIRPα1 extracellular domain 1-370, Avi-FXa-Fc tag (human, biotinylated); experiment: SPR, captured biotinylated antigen
T4 construct: also called huSIRPα1; v2
T4 sequence (chain, as listed by the source limits assumed): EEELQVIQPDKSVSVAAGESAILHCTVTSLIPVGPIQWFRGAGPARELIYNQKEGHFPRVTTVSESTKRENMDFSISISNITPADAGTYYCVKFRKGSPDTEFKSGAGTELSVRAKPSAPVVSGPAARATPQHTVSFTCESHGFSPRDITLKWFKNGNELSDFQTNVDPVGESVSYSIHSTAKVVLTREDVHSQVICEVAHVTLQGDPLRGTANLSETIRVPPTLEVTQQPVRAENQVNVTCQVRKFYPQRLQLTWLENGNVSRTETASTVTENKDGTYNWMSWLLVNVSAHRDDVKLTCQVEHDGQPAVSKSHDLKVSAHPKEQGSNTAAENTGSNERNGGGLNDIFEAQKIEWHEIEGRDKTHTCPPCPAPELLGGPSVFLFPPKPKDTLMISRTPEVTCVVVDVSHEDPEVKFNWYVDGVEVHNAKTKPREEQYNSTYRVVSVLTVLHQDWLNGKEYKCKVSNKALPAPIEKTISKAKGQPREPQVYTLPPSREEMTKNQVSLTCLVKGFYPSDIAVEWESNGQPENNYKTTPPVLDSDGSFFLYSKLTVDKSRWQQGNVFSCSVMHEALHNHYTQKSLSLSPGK
Experimental: as §1

[4] = target: T5, human SIRPαBIT, extracellular domain 1-370, Avi-FXa-Fc tag (human, biotinylated); experiment: SPR, captured biotinylated antigen
T5 construct: also called huSIRPαBIT; v1
T5 sequence (chain, as listed by the source limits assumed): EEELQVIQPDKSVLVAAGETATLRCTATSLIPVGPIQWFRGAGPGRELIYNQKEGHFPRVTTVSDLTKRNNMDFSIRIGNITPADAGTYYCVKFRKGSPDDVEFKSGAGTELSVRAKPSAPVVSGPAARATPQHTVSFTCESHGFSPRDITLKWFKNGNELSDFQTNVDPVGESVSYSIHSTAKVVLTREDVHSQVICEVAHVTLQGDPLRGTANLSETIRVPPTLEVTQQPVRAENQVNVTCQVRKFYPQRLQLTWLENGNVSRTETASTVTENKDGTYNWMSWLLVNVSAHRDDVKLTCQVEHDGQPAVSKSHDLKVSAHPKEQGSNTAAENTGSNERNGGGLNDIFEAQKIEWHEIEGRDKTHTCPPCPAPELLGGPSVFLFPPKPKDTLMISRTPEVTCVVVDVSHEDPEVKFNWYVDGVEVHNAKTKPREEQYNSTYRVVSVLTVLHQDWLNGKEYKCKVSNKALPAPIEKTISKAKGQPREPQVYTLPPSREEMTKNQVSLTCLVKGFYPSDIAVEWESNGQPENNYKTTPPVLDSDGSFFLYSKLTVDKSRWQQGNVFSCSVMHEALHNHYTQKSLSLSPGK
Experimental: as §1

[5] = target: T6, human SIRPαBIT expressed on cells (human, UniProt P78324 31-504); experiment: flow cytometry, U937 cells
T6 construct: endogenous on U937 cells or transiently expressed on ExpiCHO-S cells; in the SHP-1 assay a ProLink-tagged form on Jurkat cells; also called huSIRPαBIT; U937 cells (huSIRPαBIT)
Experimental: (§2) After an incubation time of 30 min at 4° C., the cells were washed three times with ice-cold FACS buffer and 50 μl/well secondary mAb (for human antibodies, AffiniPure F(ab′)₂ fragment Goat-anti-human IgG-APC, 1:6,000 dilution, Jackson Immuno Research was added and for mouse antibodies, AffiniPure Fab fragment Goat Anti-Mouse IgG (H+L)-Alexa Fluor 488, 1:1,000 dilution, Jackson Immuno Research was added). After 30 min at 4° C., cells were washed twice and resuspended in 150 μl FACS buffer. Fluorescence intensities were determined by flow cytometry (BD FACSVerse, Franklin Lakes, N.J.) and indicated as the median fluorescence intensity (MFI-Median) for U937 cells and the mean fluorescence intensity (MFI-Mean) for ExpiCHO-S cells. Curves were fitted by nonlinear regression using the sigmoidal dose-response equation with variable slope (four parameters) in GraphPad Prism (version 7.02 for Windows, GraphPad, San Diego, Calif.). EC₅₀ values were calculated as the concentration in μg/ml that gives a response half way between bottom and top of the curve, when using a 4-parameter logistic fit.

[6] = target: T7, human SIRPγ on human CD3+ T-cells (human, UniProt Q9P1W8 29-387); experiment: flow cytometry on CD3+ T-cells in PBMC of two healthy individuals, MFI
T7 construct: whole, on cells
T7 sequence (Q9P1W8 29-387): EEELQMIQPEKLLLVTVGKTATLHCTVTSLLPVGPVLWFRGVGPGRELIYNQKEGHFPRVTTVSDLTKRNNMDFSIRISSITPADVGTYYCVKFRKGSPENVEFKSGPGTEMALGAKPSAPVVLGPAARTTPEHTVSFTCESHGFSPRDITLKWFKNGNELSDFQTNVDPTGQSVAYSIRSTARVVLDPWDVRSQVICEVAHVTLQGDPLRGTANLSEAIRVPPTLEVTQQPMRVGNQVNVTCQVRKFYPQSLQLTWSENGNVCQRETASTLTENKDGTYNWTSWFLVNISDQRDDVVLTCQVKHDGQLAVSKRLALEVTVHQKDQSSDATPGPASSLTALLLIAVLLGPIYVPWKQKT
Experimental: (§3) Flow Cytometry assay: Peripheral mononuclear cells (PBMC) were isolated from fresh blood of healthy individuals using Percoll gradient. […] Cells (200,000 cells/well in a 96-well plate) were subsequently incubated in the presence of tested antibodies or control conditions with secondary antibodies only (secondary goat anti-human IgG Alexa 633 F(ab′)₂ fragment, dilution 1:1000, Jackson Immuno Research, and secondary goat anti-mouse IgG Alexa 633 F(ab′)₂ fragment, dilution 1:250, Invitrogen) for 30 min on ice. After that, cells were washed with FACS buffer and resuspended in a mixture of anti-human CD3 FITC antibody (dilution 1:100, Invitrogen) with respective secondary antibody (either anti-human or anti-mouse) and incubated for 30 min in the dark on ice. Afterwards the cells were washed with FACS buffer and resuspended in 150 μl of FACS buffer and fluorescence intensities were determined by flow cytometry (LSRII HTS or LSRFortessa, BD Biosciences, CA, USA) and indicated as the median fluorescence intensity (MFI-Median) and percentage of positive cells.

[7] = target: T6, human SIRPαBIT expressed on cells; experiment: flow cytometry, ExpiCHO-S cells
Experimental: as §2

[8] = target: T8, human SIRPα1 expressed on cells (human, UniProt P78324 31-504); experiment: flow cytometry, ExpiCHO-S cells
T8 construct: whole, on cells; also called huSIRPα1; ExpiCHO-S (huSIRPα1)
Experimental: as §2

[9] = target: T9, cynomolgus monkey SIRPα, extracellular domain, Avi-FXa-Fc tag (cynomolgus monkey, biotinylated); experiment: SPR, captured biotinylated antigen
T9 construct: also called cySIRPα
Experimental: as §1

[10] = target: T10, human SIRPβ1v2, extracellular domain, Avi-FXa-Fc tag (human, biotinylated); experiment: SPR, captured biotinylated antigen
T10 construct: also called huSIRPβ1v2
T10 sequence (chain, as listed by the source limits assumed): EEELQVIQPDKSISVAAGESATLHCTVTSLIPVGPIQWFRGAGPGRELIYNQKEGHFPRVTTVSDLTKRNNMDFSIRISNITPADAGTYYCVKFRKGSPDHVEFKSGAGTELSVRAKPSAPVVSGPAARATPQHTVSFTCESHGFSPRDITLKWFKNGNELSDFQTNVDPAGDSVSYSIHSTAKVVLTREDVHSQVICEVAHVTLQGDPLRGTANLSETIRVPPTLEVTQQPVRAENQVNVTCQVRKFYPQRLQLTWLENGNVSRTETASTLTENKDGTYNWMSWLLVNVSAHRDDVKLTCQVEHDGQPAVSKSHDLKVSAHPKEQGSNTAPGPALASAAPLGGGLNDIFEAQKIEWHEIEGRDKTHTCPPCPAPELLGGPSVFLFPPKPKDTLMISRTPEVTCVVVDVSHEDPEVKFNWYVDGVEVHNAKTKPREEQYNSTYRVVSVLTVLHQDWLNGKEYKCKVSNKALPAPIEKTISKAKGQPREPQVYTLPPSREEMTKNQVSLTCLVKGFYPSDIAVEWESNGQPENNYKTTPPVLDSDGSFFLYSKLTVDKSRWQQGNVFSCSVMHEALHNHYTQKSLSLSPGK
Experimental: as §1

[11] = target: T7, human SIRPγ on human CD3+ T-cells; experiment: flow cytometry on CD3+ T-cells in PBMC of two healthy individuals, % of positive cells
Experimental: as §3

[12] = target: T1, cynomolgus monkey SIRPα expressed on …; experiment: flow cytometry, ExpiCHO-S cells
Experimental: as §2

Row | Binder | Kd [1] [nM] | binding result [2] | Kd [3] [nM] | Kd [4] [nM] | EC50 [5] [µg/mL] | binding result [6] | EC50 [7] [µg/mL] | EC50 [8] [µg/mL] | Kd [9] [nM] | Kd [10] [nM] | binding result [11] | EC50 [12] [µg/mL]
1 | B1 | 1.44 | no binding (tested: below 10 RU cut-off; up to 1600 ng/ml) | 0.0191 | 0.365 | 2.78 | no binding | 0.11 | 0.19 | – | – | – | –
2 | B2 | 2.01 | no binding (tested: below 10 RU cut-off; up to 1600 ng/ml) | 0.0349 | 0.212 | 3.73 | no binding | 0.08 | 0.11 | – | – | – | –
3 | B3 | – | no binding (tested: below 10 RU cut-off; up to 1600 ng/ml) | 1.49 | < 0.01 | 0.09 | – | 0.3 | 0.28 | 1.87 | 2.42 | no binding | 0.12
4 | B4 | – | no binding (tested: below 10 RU cut-off; up to 1600 ng/ml) | 1.34 | < 0.01 | 0.1 | – | 0.31 | 0.32 | 2.27 | 2.54 | no binding | 0.12
5 | B5 | – | no binding (tested: below 10 RU cut-off; up to 1600 ng/ml) | 0.908 | < 0.01 | 0.12 | – | 0.28 | 0.4 | 1.66 | 1.92 | no binding | 0.15
6 | B6 | – | no binding (tested: below 10 RU cut-off; up to 1600 ng/ml) | 1.38 | < 0.01 | 0.1 | – | 0.36 | 0.38 | 1.94 | 2.34 | no binding | 0.14
7 | B7 | – | no binding (tested: below 10 RU cut-off; up to 1600 ng/ml) | 1.38 | < 0.01 | 0.08 | no binding | 0.26 | 0.27 | 1.53 | 1.94 | – | 0.23
